From patent US20100168033A1, “UNACYLATED GHRELIN AS THERAPEUTIC AGENT IN THE TREATMENT OF METABOLIC DISORDERS” (ALIZE PHARMA SAS, priority 2007, published 2010)
No end group written: not given here.

Tests used:
[1] = target: UAG receptor on HIT-T15 pancreatic β cells (hamster); experiment: competition with [125I-Tyr4]-UAG on HIT-T15 β-cell membranes, mean±SEM of three experiments
[2] = target: UAG receptor on INS-1E pancreatic β cells (rat); experiment: competition with [125I-Tyr4]-UAG on INS-1E β-cell membranes, mean±SEM of three experiments

Row | IC50 [1] | IC50 [2] | Binder
1 | 2.6 nM | 2 nM | GSSFLSPEHQRVQQRKESKKPPAKLQPR [unacylated ghrelin UAG (1-28)]
2 | 3.8 nM | 2.4 nM | SPEHQRVQ (not fully specified) [UAG (6-13)]
